From publication PMC4402133

Key:
Assay in all cases: native gel or EMSA
[1] = molecular target: pPL-163 nascent chain (bovine) (UniProt P01239)
[2] = molecular target: pPL-188 nascent chain (bovine) (UniProt P01239)
[3] = molecular target: pPL-223 nascent chain (bovine) (UniProt P01239)
[4] = molecular target: pPL^45-Zn-163 nascent chain (bovine | S. cerevisiae) (UniProt P01239)

Substance “RAMP complex C (~500 kD Sec61/62/63 complex) (from UniProt P38377 1-476; P82009 1-39; P82008 1-33; Q05052 33-445)” has a percent of nascent chains in complex C [1] of 2%, a percent of nascent chains retained in complex C after 1 hour at 24°C [1] of 88% and a percent of nascent chains in complex C [2] of 2%. The percent of nascent chains in complex C [3] was 5% and the percent of nascent chains retained in complex C after 1 hour at 24°C [4] was 95%.
